The target of assay [1] is T1, His-tagged FcγRIIIa (V158) (UniProt P08637 17-208).
T1 construct: not shown: His tag
Description: BLI, His-tagged FcγRIIIa (V158) captured on HIS1K tips, antibody in solution. The procedure:
Briefly, anti-Penta-HIS (HIS1K) coated biosensor tips (Pall ForteBio, USA) were used to capture His-tagged FcγRIIIa (V158) (270 nM) for 120 s. All measurements were performed at 25° C. with agitation at 1000 rpm. Association kinetic measurements for antigen binding were performed by incubating anti-HER3 antibodies at different concentrations (500 nM to 15.6 nM) for 60 s, followed by a 120 s dissociation time by transferring the biosensors into assay buffer (pH 7.2) containing wells. Sensograms were referenced for buffer effects and then fitted using the Octet QK384 user software (Pall ForteBio, USA). Kinetic responses were subjected to a global fitting using a one site binding model to obtain values for association (Kₒₙ), dissociation (Koff) rate constants and the equilibrium dissociation constant (KD). Only curves that could be reliably fitted with the software (R²>0.90) were included in the analysis.

For assay [2], the target named is T2, mouse HER3 (mouse, UniProt Q61526 20-641, limits assumed).
T2 construct: also called mouse homologue of HER3; M. musculus HER3
The assay is described as follows: ELISA, plate-coated target, antibody titrated from 10 µg/ml.

Assay [3] addresses T3, rat HER3 (rat, UniProt Q62799 20-643, limits assumed).
T3 construct: also called rat homologue of HER3; R. norvegicus HER3
Described as above.

T3 sequence (Q62799 20-643 limits assumed): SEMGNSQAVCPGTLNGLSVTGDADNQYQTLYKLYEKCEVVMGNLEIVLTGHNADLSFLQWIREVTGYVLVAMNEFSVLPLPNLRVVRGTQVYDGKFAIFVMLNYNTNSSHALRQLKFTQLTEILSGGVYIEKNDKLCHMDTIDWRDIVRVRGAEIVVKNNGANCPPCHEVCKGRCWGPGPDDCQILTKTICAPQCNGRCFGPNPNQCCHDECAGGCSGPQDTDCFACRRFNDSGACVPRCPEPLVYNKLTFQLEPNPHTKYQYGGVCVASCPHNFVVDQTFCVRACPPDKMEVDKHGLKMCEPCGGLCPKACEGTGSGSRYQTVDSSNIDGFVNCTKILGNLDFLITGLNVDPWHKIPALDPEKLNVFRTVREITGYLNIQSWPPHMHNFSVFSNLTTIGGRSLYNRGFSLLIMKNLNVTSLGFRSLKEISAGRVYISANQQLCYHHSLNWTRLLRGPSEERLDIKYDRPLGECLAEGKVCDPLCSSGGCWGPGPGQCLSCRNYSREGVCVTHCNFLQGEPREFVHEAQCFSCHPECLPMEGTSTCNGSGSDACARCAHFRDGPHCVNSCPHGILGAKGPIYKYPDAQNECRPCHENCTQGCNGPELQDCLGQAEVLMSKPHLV
T2 sequence (Q61526 20-641 limits assumed): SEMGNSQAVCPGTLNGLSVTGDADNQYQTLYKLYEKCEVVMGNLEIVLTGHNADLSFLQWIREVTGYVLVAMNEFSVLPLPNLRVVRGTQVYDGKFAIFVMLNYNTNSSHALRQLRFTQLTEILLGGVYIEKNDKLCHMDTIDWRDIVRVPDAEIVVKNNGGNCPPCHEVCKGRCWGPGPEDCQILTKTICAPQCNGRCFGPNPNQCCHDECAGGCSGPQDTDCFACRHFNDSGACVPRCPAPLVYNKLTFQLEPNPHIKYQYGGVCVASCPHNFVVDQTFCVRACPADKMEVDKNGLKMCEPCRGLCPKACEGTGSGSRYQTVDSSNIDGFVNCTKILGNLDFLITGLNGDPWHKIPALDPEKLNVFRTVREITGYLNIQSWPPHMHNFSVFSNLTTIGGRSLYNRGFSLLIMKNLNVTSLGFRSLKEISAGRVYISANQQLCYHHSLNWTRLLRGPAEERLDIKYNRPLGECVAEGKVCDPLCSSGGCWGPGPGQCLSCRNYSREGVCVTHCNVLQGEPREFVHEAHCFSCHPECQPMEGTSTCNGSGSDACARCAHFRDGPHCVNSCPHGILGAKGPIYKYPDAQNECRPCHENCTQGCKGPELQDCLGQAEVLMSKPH

B1: Fc-modified anti-HER3 antibody clone 10D1 comprising GASD substitutions in CH2 region (antibody, human IgG1, kappa)
heavy: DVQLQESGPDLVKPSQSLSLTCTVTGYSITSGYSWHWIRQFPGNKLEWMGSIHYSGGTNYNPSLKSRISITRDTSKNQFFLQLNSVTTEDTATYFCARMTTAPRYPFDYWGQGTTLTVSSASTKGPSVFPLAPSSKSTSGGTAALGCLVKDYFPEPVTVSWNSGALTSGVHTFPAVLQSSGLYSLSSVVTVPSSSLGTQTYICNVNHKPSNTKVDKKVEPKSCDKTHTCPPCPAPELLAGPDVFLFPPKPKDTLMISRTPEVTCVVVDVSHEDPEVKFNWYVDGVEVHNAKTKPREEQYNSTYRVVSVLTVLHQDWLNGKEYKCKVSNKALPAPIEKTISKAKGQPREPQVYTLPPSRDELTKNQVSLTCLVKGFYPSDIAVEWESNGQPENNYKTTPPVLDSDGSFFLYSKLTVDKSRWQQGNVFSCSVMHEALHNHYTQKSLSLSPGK
light: DIVMTQSQKFMSTSVGDRVSVTCKASQIVGSNVAWYQQKPGQSPKPLIYSASYRYSGVPDRFTASGSGTDFTLTITNVQSEDLAEYFCQQYSSHPLTFGAGTKLELKRTVAAPSVFIFPPSDEQLKSGTASVVCLLNNFYPREAKVQWKVDNALQSGNSQESVTEQDSKDSTYSLSSTLTLSKADYEKHKVYACEVTHQGLSSPVTKSFNRGEC
notes: also called 10D1 GASD variant
As to B1, the binding result in assay [1] is “binds”.

B2: anti-HER3 clone 10D1 IgG1 (antibody)
heavy: not shown
light: B1 light
notes: Mouse variable regions on human IgG1/kappa constant regions (chimeric); also called 10D1P; 10D1 (parental)
For B2, the binding result in assay [2], in assay [3] and in assay [1] was “binds” each time.

B3: 10D1F.FcA (anti-HER3 clone 10D1_c89 IgG1) (antibody, V domains shown)
VH: QVQLQESGPGLVKPSQTLSLTCTVSGYSITSGYSWHWIRQHPGKGLEWIGSIRYSGGTDYNPSLKSLVTISADTSKNQFSLKLSSVTAADTAVYYCARMTTAPWYPFDYWGQGTTVTVSS
VL: DIQMTQSPSSVSASVGDRVTITCKASQIVGSNVAWYQQKPGKAPEPLIYSASYLYSGVPSRFSGSGSGTDFTLTISSLQPEDFATYYCQQYSSHPLTFGQGTKLEIKR
notes: also called 10D1F.A
Turning to B3, the binding result in assay [2] and in assay [3] was “binds” throughout.

The record behind these values is patent US20210024651A1 (published 2021).
